US20160355602A1 (Astellas, published 2016)
“And” between values parts separate entries of the source, which are not always exact repeats. Equal values may be shown once.

Columns and labels:
[1] = biological target: T1, human TLR4/MD2 protein (R&D Systems, 3146-TM/CF) (human, UniProt O00206 24-631; Q9Y6Y9 17-160, limits assumed); test: ELISA, human TLR4/MD2 protein immobilized on plate, detection with anti-human IgG-HRP
T1 construct: Bought recombinant complex; also called human TLR4 and MD2 complex
T1 sequence (O00206 24-631 limits assumed, chain 1 of 2): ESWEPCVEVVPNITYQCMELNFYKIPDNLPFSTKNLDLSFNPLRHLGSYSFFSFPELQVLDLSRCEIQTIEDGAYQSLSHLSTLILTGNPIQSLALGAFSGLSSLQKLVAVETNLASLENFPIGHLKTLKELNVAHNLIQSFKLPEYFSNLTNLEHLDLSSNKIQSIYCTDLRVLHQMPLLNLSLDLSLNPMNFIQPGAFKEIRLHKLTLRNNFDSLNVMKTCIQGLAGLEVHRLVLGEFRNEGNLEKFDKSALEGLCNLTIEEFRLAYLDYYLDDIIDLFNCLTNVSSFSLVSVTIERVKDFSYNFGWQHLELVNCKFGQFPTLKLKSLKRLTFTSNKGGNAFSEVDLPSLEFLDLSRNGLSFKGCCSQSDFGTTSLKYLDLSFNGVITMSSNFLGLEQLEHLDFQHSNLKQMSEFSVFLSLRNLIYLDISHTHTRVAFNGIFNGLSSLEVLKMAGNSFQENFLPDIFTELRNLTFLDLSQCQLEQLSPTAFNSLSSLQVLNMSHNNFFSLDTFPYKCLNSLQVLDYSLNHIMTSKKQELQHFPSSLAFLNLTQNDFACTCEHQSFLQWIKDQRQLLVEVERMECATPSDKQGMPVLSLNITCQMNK
T1 sequence (Q9Y6Y9 17-160 limits assumed, chain 2 of 2): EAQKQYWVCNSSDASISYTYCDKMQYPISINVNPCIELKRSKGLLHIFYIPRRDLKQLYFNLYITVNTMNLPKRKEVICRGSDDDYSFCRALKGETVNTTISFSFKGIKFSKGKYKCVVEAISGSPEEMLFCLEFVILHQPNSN
Method: (§1) In order to evaluate the binding activity of each of two bispecific antibodies prepared in Example 8 for human TLR2 and human TLR4, ELISA was carried out using a human TLR2 protein and a human TLR4/MD2 protein. 15 μL/well of a human TLR2 protein (R&D Systems, 2616-TR-050) diluted to a concentration of 10 μg/mL in PBS (Life Technologies, 10010-023) was added to a MaxiSorp 384-well plate Clear (Thermo Fisher Scientific Inc.), followed by immobilization at room temperature for 1 hour. Similarly, 15 μL/well of a human TLR4/MD2 protein (R&D Systems, 3146-TM/CF) was added at 10 μg/mL, followed by immobilization at room temperature for 1 hour. After 1 hour, the wells were washed three times with a washing solution (0.05% Tween-20-containing Tris-buffered saline (TBS)), and 100 μL/well of Blocking One (NACALAI TESQUE, INC., 03953-95) was added, followed by blocking at room temperature for 1 hour. The wells were washed again three times with a washing solution, 15 μL/well of two bispecific antibodies prepared in Example 8 was added to the well on which the human TLR2 protein was immobilized and the well on which the human TLR4/MD2 protein was immobilized. […] An absorbance at 450 nm was measured by using Safire2 (TECAN), and an EC50 value of each antibody for the human TLR2 protein and the human TLR4/MD2 protein was calculated.

[2] = biological target: T2, human TLR2 protein (R&D Systems, 2616-TR-050) (human, UniProt O60603 21-590, limits assumed); test: ELISA, human TLR2 protein immobilized on plate, detection with anti-human IgG-HRP
T2 construct: Bought recombinant protein
T2 sequence (O60603 21-590 limits assumed): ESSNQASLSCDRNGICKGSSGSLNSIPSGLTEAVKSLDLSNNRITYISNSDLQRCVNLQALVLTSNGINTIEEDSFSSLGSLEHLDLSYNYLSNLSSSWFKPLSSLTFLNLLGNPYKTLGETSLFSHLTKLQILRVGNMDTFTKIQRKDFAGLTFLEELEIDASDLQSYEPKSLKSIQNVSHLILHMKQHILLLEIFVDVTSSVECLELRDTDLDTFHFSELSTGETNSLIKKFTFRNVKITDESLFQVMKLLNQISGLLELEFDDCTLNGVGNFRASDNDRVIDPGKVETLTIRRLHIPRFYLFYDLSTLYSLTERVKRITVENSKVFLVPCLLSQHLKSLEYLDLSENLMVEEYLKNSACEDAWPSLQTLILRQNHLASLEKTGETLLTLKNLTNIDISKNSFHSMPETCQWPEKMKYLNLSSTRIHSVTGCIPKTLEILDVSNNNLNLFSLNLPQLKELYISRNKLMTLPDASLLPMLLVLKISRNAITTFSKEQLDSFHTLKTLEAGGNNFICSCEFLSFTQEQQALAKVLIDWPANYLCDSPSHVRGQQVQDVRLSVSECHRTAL
Method: as §1

[3] = biological target: human TLR4/MD2 endogenously expressed on normal human peripheral blood mononuclear cells (human, UniProt O00206 24-839; Q9Y6Y9 19-160); test: cell-based or functional assay
Sequence of human TLR4/MD2 endogenously expressed on normal human peripheral blood mononuclear cells (O00206 24-839, chain 1 of 2): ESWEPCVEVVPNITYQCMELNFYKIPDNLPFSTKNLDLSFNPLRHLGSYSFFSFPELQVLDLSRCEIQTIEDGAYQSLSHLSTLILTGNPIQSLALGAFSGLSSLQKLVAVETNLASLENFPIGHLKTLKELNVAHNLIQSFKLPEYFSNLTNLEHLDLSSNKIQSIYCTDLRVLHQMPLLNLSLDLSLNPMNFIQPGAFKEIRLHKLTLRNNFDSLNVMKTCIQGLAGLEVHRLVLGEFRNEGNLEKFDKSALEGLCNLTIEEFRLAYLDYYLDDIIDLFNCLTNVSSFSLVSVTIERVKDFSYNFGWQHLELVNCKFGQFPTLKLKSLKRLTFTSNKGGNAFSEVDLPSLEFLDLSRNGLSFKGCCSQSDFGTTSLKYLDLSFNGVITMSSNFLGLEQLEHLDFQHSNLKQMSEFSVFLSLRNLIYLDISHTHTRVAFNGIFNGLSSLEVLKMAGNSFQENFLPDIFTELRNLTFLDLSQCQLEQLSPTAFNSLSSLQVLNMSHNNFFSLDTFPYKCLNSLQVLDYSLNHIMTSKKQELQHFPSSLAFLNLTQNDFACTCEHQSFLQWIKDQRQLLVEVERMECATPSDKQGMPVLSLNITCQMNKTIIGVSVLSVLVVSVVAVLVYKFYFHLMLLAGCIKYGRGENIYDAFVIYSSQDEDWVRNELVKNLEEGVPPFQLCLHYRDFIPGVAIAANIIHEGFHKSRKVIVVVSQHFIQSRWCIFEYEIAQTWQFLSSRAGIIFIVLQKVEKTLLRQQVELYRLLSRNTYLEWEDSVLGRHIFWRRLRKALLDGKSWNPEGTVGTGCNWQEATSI
Sequence of human TLR4/MD2 endogenously expressed on normal human peripheral blood mononuclear cells (Q9Y6Y9 19-160, chain 2 of 2): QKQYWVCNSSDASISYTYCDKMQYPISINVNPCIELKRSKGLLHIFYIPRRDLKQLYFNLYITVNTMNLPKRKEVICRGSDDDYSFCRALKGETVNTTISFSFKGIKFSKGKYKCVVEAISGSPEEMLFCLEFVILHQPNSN

[4] = biological target: T3, human TLR2 endogenously expressed on cells (THP1-xBlue cells; normal human peripheral blood mononuclear cells) (human, UniProt O60603 21-784); test: cell-based or functional assay
T3 sequence (O60603 21-784): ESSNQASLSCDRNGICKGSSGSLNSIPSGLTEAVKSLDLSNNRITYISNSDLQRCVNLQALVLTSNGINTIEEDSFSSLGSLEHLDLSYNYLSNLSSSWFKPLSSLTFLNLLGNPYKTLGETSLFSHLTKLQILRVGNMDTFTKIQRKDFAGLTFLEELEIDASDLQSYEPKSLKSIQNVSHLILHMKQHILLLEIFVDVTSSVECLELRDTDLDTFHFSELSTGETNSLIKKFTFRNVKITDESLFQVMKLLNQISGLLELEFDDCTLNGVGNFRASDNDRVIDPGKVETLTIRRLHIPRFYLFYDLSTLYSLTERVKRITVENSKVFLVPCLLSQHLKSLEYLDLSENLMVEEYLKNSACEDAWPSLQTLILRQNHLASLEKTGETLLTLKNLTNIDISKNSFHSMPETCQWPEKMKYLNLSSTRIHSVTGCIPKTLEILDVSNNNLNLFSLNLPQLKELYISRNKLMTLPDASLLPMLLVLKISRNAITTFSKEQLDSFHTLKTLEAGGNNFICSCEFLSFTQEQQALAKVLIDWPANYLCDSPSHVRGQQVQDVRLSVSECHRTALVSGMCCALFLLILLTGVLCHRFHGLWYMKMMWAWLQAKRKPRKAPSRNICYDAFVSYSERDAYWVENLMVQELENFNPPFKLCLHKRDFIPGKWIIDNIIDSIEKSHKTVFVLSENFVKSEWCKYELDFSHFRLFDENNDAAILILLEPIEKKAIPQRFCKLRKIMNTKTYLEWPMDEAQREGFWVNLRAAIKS

[5] = biological target: T3, human TLR2 endogenously expressed on …; test: cell-based or functional assay; remark: listed apart in the source
[6] = biological target: T2, human TLR2 protein (R&D Systems, …); test: SPR (Biacore T200), human TLR2 protein captured by anti-His IgG on CM5 chip, antibody at 200 nM as analyte, bivalent analyte model
Method: To evaluate a binding activity of the fully human 31-5F5-2F3.m1 prepared in Example 4 for human TLR2, an SPR analysis was carried out.
In the SPR analysis, Biacore T200 (GE Healthcare Japan) was used to carry out analysis. An Anti-His IgG (enclosed in His Capture Kit) was immobilized on a sensor chip CM5 (GE Healthcare Japan, BR-1005-30) using a His Capture Kit (GE Healthcare Japan, 28-9950-56) and Amine Coupling Kit (GE Healthcare Japan, BR-1000-50). Flow path No. 1 is referred to as a reference, onto which the human TLR2 protein was not attached. Onto each of other flow paths (No. 2, No. 3, and No. 4), a human TLR2 protein (R&D Systems, 2616-TR-050) diluted to 0.66 μg/mL in HBS-EP+ buffer (GE Healthcare Japan, BR-1006-69) was added at a flow rate of 5 μL/minute for 2 minutes and then immobilized. Thereafter, a solution of fully human 31-5F5-2F3.m1 diluted to 200 nM in HBS-EP+buffer was added at a flow rate of 50 μL/minute for 2 minutes, and the fully human antibody-human TLR2 binding was measured. Next, HBS-EP+buffer was added at a flow rate of 50 μL/minute for 5 minutes and the dissociation of the fully human antibody and human TLR2 was measured. Bivalent analyte model and the Rmax were analyzed by Fit local to calculate the association rate constant (ka) and dissociation rate constant (kd), and the association-dissociation constant (KD) was calculated by dividing kd by ka.

Binder | EC50 [1] [nM] | EC50 [2] [nM] | IC50 value, killed Pseudomonas aeruginosa-induced TNFα production on normal human peripheral blood mononuclear cells [3] [nM] | IC50 value, killed Pseudomonas aeruginosa-induced TNFα production on normal human peripheral blood mononuclear cells [4] [nM] | IC50 value against Pam2CSK4-induced AP production in THP1-xBlue cells [5] | Kd [6] [nM]
fully human ICU-1-Igγ1-LAsh (bispecific antibody, human IgG1, kappa, L234A L235A, As fully human ICU-1-Igγ1, but with L234A, L235A and I253A (EU index) in the human Igγ1 constant region; also called IgG(TLR2)-scFv(TLR4) bispecific antibody with L234A, L235A and I253A) heavy: not shown light: DVQMTQSPSSLSASVGDRVTITCRSSQSLVFSDGNTYLNWFQQKPGKAPKRLIYKVSNRDSGVPSRFSGSGSGTDFTLTISSLQPEDFATYYCMQGAHWPLTFGQGTKVEIKRTVAAPSVFIFPPSDEQLKSGTASVVCLLNNFYPREAKVQWKVDNALQSGNSQESVTEQDSKDSTYSLSSTLTLSKADYEKHKVYACEVTHQGLSSPVTKSFNRGEC | 0.522 | 0.21 | 0.0172 | 0.0172 |  | 
fully human ICU-1-Igγ1 (bispecific antibody, human IgG1, kappa, Tetravalent IgG-scFv: an anti-TLR4 scFv is joined by a GS linker to the C terminal of each heavy chain of the anti-TLR2 IgG1; also called IgG(TLR2)-scFv(TLR4) bispecific antibody) heavy: not shown light: DVQMTQSPSSLSASVGDRVTITCRSSQSLVFSDGNTYLNWFQQKPGKAPKRLIYKVSNRDSGVPSRFSGSGSGTDFTLTISSLQPEDFATYYCMQGAHWPLTFGQGTKVEIKRTVAAPSVFIFPPSDEQLKSGTASVVCLLNNFYPREAKVQWKVDNALQSGNSQESVTEQDSKDSTYSLSSTLTLSKADYEKHKVYACEVTHQGLSSPVTKSFNRGEC | 0.493 | 0.15 | 0.04 | 0.04 |  | 
fully human 31-5F5-2F3.m1 (antibody, human IgG1, kappa, V domains shown, Human Igγ1 / human kappa constant regions; also called fully human anti-human TLR2 antibody; fully human antibody of 31-5F5-2F3.m1) VH: EVQLVESGGGLVQPGGSLRLSCAASGFTFSNYAMSWVRQAPGKGLEWVAAIYGRGGYTNYADSVKGRFTISRDNSKNTLYLQMNSLRAEDTAVYYCAKEGGGYRDYFDYWGQGTLVTVSS VL: DVQMTQSPSSLSASVGDRVTITCRSSQSLVFSDGNTYLNWFQQKPGKAPKRLIYKVSNRDSGVPSRFSGSGSGTDFTLTISSLQPEDFATYYCMQGAHWPLTFGQGTKVEIKR |  |  |  |  | 0.0977 nM and 0.13 nM | 0.0885
